Numbering of substitutions follows the chain as printed. Names may count otherwise.
B1: recombinant FLT3-D835Y mutant kinase (protein)
chain: HKYKKQFRYESQLQMVQVTGSSDNEYFYVDFREYEYDLKWEFPRENLEFGKVLGSGAFGKVMNATAYGISKTGVSIQVAVKMLKEKADSSEREALMSELKMMTQLGSHENIVNLLGACTLSGPIYLIFEYCCYGDLLNYLRSKREKFHRTWTEIFKEHNFSFYPTFQSHPNSSMPGSREVQIHPDSDQISGLHGNSFHSEDEIEYENQKRLEEEEDLNVLTFEDLLCFAYQVAKGMEFLEFKSCVHRDLAARNVLVTHGKVVKICDFGLARYIMSDSNYVVRGNARLPVKWMAPESLFEGIYTIKSDVWSYGILLWEIFSLGVNPYPGIPVDANFYKLIQNGFKMDQPFYATEEIYIIMQSCWAFDSRKRPSFPNLTSFLGCQLADAEEAMYQNVDGRVSECPHTYQNRRPFSREMDLGLLSPQAQVEDS
B2: recombinant wild type FLT3 kinase (FLT3-WT) (protein)
chain: B1 chain with Y272D

Columns and labels:
[1] = target: FLT3 Artificial Substrate (FAS) candidate sequence A
[2] = target: FLT3 Artificial Substrate (FAS) candidate sequence B
[3] = target: FLT3 Artificial Substrate (FAS) candidate sequence C
[4] = target: FLT3 Artificial Substrate (FAS) candidate sequence E
[5] = target: FLT3 Artificial Substrate (FAS) candidate sequence F
[6] = target: FLT3 Artificial Substrate (FAS) candidate sequence G
[7] = target: FLT3 Artificial Substrate (FAS) candidate sequence H
[8] = target: FLT3 Artificial Substrate (FAS) candidate sequence D

| Protein | phosphorylation, in vitro kinase assay [1] | phosphorylation, in vitro kinase assay [2] | phosphorylation, in vitro kinase assay [3] | phosphorylation, in vitro kinase assay [4] | phosphorylation, in vitro kinase assay [5] | phosphorylation, in vitro kinase assay [6] | phosphorylation, in vitro kinase assay [7] | phosphorylation, in vitro kinase assay, 60-minute incubation [1] | phosphorylation, in vitro kinase assay [8] |
| --- | --- | --- | --- | --- | --- | --- | --- | --- | --- |
| B1 | Candidate sequences A, B, C displayed higher levels of phosphorylation by FLT3-D835Y compared to FL-Abltide | Candidate sequences A, B, C displayed higher levels of phosphorylation by FLT3-D835Y compared to FL-Abltide | Candidate sequences A, B, C displayed higher levels of phosphorylation by FLT3-D835Y compared to FL-Abltide | Sequences E, F and G were also phosphorylated by FLT3-D835Y but at lower levels than FL-Abltide | Sequences E, F and G were also phosphorylated by FLT3-D835Y but at lower levels than FL-Abltide | Sequences E, F and G were also phosphorylated by FLT3-D835Y but at lower levels than FL-Abltide | sequence H showed no phosphorylation |  |  |
| B2 |  | The remaining sequences did not get phosphorylated by FLT3-WT |  | The remaining sequences did not get phosphorylated by FLT3-WT | The remaining sequences did not get phosphorylated by FLT3-WT | The remaining sequences did not get phosphorylated by FLT3-WT | The remaining sequences did not get phosphorylated by FLT3-WT | Sequence A showed a similar level of phosphorylation compared to Abltide over a 60-minute incubation | The remaining sequences did not get phosphorylated by FLT3-WT |

Reference: US20170334950
